Results on 7 molecules are retold here after US20140086913A1 (Gilead, published 2014).

The target of test [1] is DDR1 endogenously expressed on human cancer cell lines (T47D, HCT-116, A431) (human) (UniProt Q08345). The test is described as follows: cell-based or functional assay.
Test [2] shares this target. The test is described as follows: flow cytometry, T47D cells.
The target is the same in test [3]. The test is described as follows: flow cytometry, HCT116 cells.
Test [4] addresses human DDR1 (isoform B) stably expressed on HEK293 cells (human) (UniProt Q08345). The test is described as follows: flow cytometry, HEK293/hDDR1.
Another test concerns the target T1, mouse ECD-DDR1-Fc (mouse; human, UniProt Q03146 22-414).
T1 construct: also called mouse DDR1-ECD; wild-type mouse DDR1-ECD; not shown: human IgG1 Fc of the vector pFuse-hIgG1-Fc1 (Invivogen)
T1 sequence: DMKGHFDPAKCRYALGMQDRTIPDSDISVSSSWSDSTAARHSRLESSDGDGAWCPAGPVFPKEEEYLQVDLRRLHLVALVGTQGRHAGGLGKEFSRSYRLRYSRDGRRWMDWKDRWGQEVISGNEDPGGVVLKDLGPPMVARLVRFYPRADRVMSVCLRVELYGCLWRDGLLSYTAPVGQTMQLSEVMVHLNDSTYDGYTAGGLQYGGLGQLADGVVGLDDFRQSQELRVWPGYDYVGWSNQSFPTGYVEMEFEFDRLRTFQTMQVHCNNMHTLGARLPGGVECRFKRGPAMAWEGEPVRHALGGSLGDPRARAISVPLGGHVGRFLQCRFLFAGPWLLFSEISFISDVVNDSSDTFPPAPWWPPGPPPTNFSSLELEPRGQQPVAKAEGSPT
The test is described as follows: ELISA, coated antigen. How it is done: (§1) In this study, ELISA was used to determine the affinity of murine anti-DDR1 monoclonal antibodies to the extracellular domain (ECD) of either human or murine DDR1. A 96-well MaxiSorb ELISA plates (Nunc) were coated with 2 μg/mL of one of three purified recombinant tagged proteins: human ECD-DDR1-His protein, human ECD-DDR1-Fc, or mouse ECD-DDR1-Fc overnight at 4° C. The next day, the plates were blocked with 5% bovine serum albumin (BSA, Jackson Immunoresearch) prior to the addition of serially diluted anti-DDR1 monoclonal antibodies. Antibodies were incubated for 1 hr at room temperature. The binding of antibody to the antigen was detected by incubating samples with anti-mouse IgG-HRP (horse radish peroxidase) secondary detection antibody (Jackson Immunoresearch) for 1 hr. After a washing step, 3,3′,5,5″-tetramethylbenzidine (TMB) reagent was added for HRP to produce a colorimetric signal. The reaction was stopped by addition of 1M hydrochloric acid after 2 minutes and measured for absorbance (optical density, OD) at 450λ on a Molecular Devices plate reader. The OD values were plotted against antibody concentration and fitted using a using 4-parameter logistic equation in SoftMax software (Molecular Devices). The apparent affinity constant (KD) was taken from the C-parameter of the equation (y=(A−D)/(1+(x/C)̂B)+D). The apparent affinity constants were summarized (in some cases shown as average values) in Table 10 below. Lower value indicates higher binding affinity of the antibody to the antigen.

Test [5] concerns the target DDR1 with a ProLink Tag (PK) in engineered U20S cells (DiscoveRx), Q08345. The test is described as follows: cell-based or functional assay.
In test [6] the target is T2, human DDR2 stably expressed on HEK293 cells (human, UniProt Q16832 22-855).
T2 construct: whole, on cells; also called hDDR2
T2 sequence (looked up): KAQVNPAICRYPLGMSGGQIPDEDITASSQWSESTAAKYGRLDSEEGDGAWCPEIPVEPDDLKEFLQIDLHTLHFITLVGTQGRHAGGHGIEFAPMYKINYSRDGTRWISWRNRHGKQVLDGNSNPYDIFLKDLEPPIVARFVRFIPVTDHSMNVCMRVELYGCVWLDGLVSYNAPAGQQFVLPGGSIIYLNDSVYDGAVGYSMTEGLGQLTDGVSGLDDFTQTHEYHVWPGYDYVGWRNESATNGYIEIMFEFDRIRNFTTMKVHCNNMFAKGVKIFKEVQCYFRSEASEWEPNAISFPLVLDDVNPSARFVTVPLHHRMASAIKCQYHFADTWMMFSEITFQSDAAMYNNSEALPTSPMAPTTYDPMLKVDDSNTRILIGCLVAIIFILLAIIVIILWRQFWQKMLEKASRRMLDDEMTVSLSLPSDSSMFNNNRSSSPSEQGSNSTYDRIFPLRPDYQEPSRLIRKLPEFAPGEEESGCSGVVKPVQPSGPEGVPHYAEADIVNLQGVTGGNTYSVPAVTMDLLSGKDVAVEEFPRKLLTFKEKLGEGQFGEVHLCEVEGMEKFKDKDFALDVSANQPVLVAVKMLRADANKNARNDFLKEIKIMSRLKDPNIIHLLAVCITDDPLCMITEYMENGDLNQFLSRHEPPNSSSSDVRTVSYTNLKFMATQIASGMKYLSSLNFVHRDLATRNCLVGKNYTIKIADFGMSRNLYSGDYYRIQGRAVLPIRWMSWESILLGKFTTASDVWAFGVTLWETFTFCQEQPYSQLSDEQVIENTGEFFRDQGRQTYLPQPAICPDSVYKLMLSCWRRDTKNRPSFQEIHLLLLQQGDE
The test is described as follows: flow cytometry, HEK293/hDDR2. As to the method:
Additional monoclonal antibodies were obtained from individual hybridomas in Example 1 and were characterized for their properties.
Cells were cultured in DMEM with 10% FBS and 0.8 mg/mL hygromycin. When cells reached 60-80% confluence, they were centrifuged at 1,200 rpm for 5 minutes, suspended in FACS buffer (1×PBS, 1% BSA), and aliquoted into a 96-well plate at 1×10⁶ cells per well. The anti-DDR1 monoclonal antibodies or appropriate isotype controls at 2 μg per 1×10⁶ cells were added and incubated at 4° C. for 1 hr. The cells were washed twice with FACS buffer then stained with the anti-IgG-PE secondary antibody at 10 μL per well at 4° C. for 1 hr. The cells were washed again and measured for the MFI values or signals using flow cytometry (LSR Fortessa instrument, BD Biosciences). Background MFI signals from vector-only cells (i.e. no DDR1 or DDR2 expression) was subtracted from those of the cells treated with antibodies. Higher MFI values or signals indicated increased binding or specificity of the anti-DDR1 antibodies to the DDR1 on the cell surface.

Test [7] concerns the target T3, DDR1ECD-Fc (R&D Systems, Catalog #2396-DR) (human, UniProt Q08345 21-416).
T3 construct: range 21-416; construct as described for the bought immunogen; also called human ECD-DDR1-Fc; Fc-ECD-DR1; not shown: human IgG1, Pro100-Lys330
The test is described as follows: ELISA, coated antigen, apparent KD. How it is done:
as §1

For test [8], the target named is T4, human ECD-DDR1-His protein (human, UniProt Q08345 21-416).
T4 construct: also called huDDR1-ECD-His; DDR1ECD-6Xhis; not shown: His tag
The test is described as follows: ELISA, coated antigen, apparent KD. How it is done: as §1

human DDR1 (isoform B) stably expressed on HEK293 cells (human), sequence (Q08345 19-913): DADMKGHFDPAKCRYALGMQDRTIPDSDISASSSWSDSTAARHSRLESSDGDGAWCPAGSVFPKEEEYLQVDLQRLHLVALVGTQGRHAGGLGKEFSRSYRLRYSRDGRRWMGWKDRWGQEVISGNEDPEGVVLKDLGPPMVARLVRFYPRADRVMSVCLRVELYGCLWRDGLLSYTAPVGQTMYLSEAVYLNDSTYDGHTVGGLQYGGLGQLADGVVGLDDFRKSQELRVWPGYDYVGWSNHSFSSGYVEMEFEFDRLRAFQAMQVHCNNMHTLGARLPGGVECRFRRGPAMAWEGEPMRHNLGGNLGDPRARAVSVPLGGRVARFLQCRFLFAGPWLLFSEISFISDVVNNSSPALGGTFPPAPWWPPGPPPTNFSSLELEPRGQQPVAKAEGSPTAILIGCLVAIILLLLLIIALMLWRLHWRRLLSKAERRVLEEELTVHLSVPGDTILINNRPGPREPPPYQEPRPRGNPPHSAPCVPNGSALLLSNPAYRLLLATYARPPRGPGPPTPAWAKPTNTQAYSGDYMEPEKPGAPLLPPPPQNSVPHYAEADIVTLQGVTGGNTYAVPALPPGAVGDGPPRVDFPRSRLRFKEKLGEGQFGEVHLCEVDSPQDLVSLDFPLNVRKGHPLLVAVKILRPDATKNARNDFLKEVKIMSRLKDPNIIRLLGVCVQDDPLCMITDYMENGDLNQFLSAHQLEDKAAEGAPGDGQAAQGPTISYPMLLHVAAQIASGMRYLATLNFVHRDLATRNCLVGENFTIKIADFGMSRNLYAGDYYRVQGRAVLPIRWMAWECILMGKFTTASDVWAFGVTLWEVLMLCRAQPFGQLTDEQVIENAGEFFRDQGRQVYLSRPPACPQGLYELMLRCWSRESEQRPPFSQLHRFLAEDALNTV

B1: AB2003 (antibody, V domains shown)
VH: DVHLQESGPDLVKPSQSLSLTCTVTDYSITSGYGWHWIRQFPGNKLEWMGYIHYGGSTKYNSSLKSRISITRDTSKNQFFLQLKSVTTDDTGTYYCATSGNYGFAYWGQGTLVTVSA
VL: DIVLTQSPTSLAVSLGQRATMSCRASESVDDYGTSFMHWYQQKPGQPPKLLIYRASNLESGIPARFSGSGSRADFTLSINPVEPDDVATYYCQQSNEDPFTFGSGTKLEIKR
notes: mouse hybridoma mAb
The molecule B1 showed an EC50, DDR1 phospho-specific ELISA (T47D) in [1] of 0.42 nM. Moreover, in test [1], the EC50, cluster formation assay (A431 cells) is 2.38 nM. The same molecule gave a Maximal inhibition, DDR1 phospho-specific ELISA (T47D) in [1] of 100%. Further, in [1], the NPI of cluster formation at 66 nM (A431 cells) came out at 128%. The MFI in test [2] was found to be 6100 MFI; in test [3], 1410 MFI; in [4], 15000 MFI; in test [6] it was 176 MFI. Also, the binding result with mouse ECD-DDR1-Fc is on record as “no binding”. Moreover, the Mean EC50, DDR1 Tyr513 phosphorylation assay (U20S) in test [5] was determined as 3 nM. For the same molecule, the figures for the Kd in test [7] and in [8] were 0.216 nM and 0.153 nM, respectively.

B2: AB2019 (antibody, V domains shown)
VH: QVQLKQSGPGLVQPSQSLSITCTVSGFSFTGYGIHWVRQSPGKGLEWLGVIWSGGITDYNAAFISRLSISMDSSKGQVFFKMNSLQANDTAIYYCARRSTTVVADYAMDYWGQGTSVTVSS
VL: SIVMTQTPKFLLVSAGDRVTITCKASQSVSNDVAWYQQKPGQSPKLLIYYASNRYTGVPDRFTGSGYGTDFTFTINTVQAEDLAVYFCQQDYTSPLTFGAGTKLELKR
notes: mouse hybridoma mAb
Consider B2, for which the EC50, DDR1 phospho-specific ELISA (T47D) in test [1] worked out at 0.66 nM. In test [1], this molecule returned a Maximal inhibition, DDR1 phospho-specific ELISA (T47D) of 100%. The NPI of cluster formation at 66 nM (A431 cells) in test [1] worked out at 113%. Besides, the MFI in test [2] was 4950 MFI; in test [3], 1490 MFI; in test [4], 12600 MFI; in test [6] it was 244 MFI. In addition, in test [5], the Mean EC50, DDR1 Tyr513 phosphorylation assay (U20S) was 6.6 nM. Further, the figures for the Kd in test [7] and in test [8] were 0.324 nM and 0.372 nM, respectively.

B3: AB2032 (antibody, V domains shown)
VH: B2 VH
VL: B2 VL
notes: mouse hybridoma mAb
In the case of B3, in test [1], the EC50, DDR1 phospho-specific ELISA (T47D) amounted to 0.64 nM. The same molecule gave an EC50, cluster formation assay (A431 cells) in test [1] of 6.89 nM. The Maximal inhibition, DDR1 phospho-specific ELISA (T47D) in test [1] amounted to 100%. The NPI of cluster formation at 66 nM (A431 cells) in test [1] came to 103%. In addition, the MFI in [2] is 6820 MFI; in test [3], 1900 MFI; in test [4], 13700 MFI; in [6] it was 265 MFI. This molecule returned a Mean EC50, DDR1 Tyr513 phosphorylation assay (U20S) in test [5] of 7.72 nM. The Kd in test [7] amounted to 0.596 nM; in test [8], 0.5 nM.

B4: AB2040 (antibody, V domains shown)
VH: EVMLVESGGGLVKPGGSLKLSCAASGFTFSNYAMSWVRQTPEKRLEWVAKTSSGDTYTYYPDSVKGRFTISRDNAKNTLYLQMTSLRSEDTAIYYCARQDYYGITPWFFDVWGAGTTVTVSS
VL: ENVLTQSPAIMSASPGEKVTMTCRASSSVSSIYLHWYQQKSGASPKLWIYSTSNLASGVPARFSGSGSGTSYSLTITSVEAEDAATYYCQQYSGYPLITFGAGTKLELKR
notes: mouse hybridoma mAb
As to B4, the EC50, DDR1 phospho-specific ELISA (T47D) in [1] was 0.34 nM. Further, the NPI of cluster formation at 66 nM (A431 cells) in test [1] was 3.6%. Also, the MFI stood at 2810 MFI in test [2], 2210 MFI in test [3], 13700 MFI in test [4] and 308 MFI in [6]. Besides, the binding result with mouse ECD-DDR1-Fc was “no binding”. In addition, the Kd in [7] turned out to be 0.254 nM; in test [8] it was 0.115 nM.

B5: AB2054 (antibody, V domains shown)
VH: B4 VH
VL: B4 VL
notes: mouse hybridoma mAb
In test [1], B5 gave an EC50, DDR1 phospho-specific ELISA (T47D) of 0.36 nM. Also, the NPI of cluster formation at 66 nM (A431 cells) in test [1] stood at 3.6%. The MFI in [2] came out at 5930 MFI; in test [3], 1530 MFI; in test [4] it was 15500 MFI; in test [6], 306 MFI. In addition, the binding result with mouse ECD-DDR1-Fc was “no binding”. Further, the Kd turned out to be 0.31 nM in test [7] and 0.154 nM in test [8].

B6: AB2065 (antibody, V domains shown)
VH: B4 VH
VL: B4 VL
notes: mouse hybridoma mAb
Take B6: the EC50, DDR1 phospho-specific ELISA (T47D) in test [1] was 0.35 nM. Besides, the Maximal inhibition, DDR1 phospho-specific ELISA (T47D) in test [1] worked out at 100%. Moreover, in test [1], the NPI of cluster formation at 66 nM (A431 cells) came to 15.8%. In addition, the MFI was 4400 MFI in test [2], 2480 MFI in [3], 3560 MFI in test [4] and 353 MFI in [6]. Also, in the test with mouse ECD-DDR1-Fc, the binding result is recorded as “no binding”. In test [5], this molecule returned a Mean EC50, DDR1 Tyr513 phosphorylation assay (U20S) of 25.7 nM. Further, the Kd is 0.234 nM in [7] and 0.197 nM in test [8].

B7: AB2073 (antibody, V domains shown)
VH: B4 VH
VL: B4 VL
notes: mouse hybridoma mAb
Consider B7, for which the EC50, DDR1 phospho-specific ELISA (T47D) in test [1] was 0.45 nM. The NPI of cluster formation at 66 nM (A431 cells) in test [1] is -0.2%. Besides, the MFI in [2] turned out to be 6050 MFI; in [3] it was 1690 MFI; in [4], 16200 MFI; in [6], 410 MFI. The binding result with mouse ECD-DDR1-Fc is listed as “no binding”. In addition, the Kd in test [7] was 0.209 nM; in test [8] it was 0.2 nM.
